doi:10.1101/2020.11.26.395038 (bioRxiv, 2020)

B1: full-length MKK6 (residues 1-334) (enzyme, UniProt P52564 1-334, looked up)
chain: MSQSKGKKRNPGLKIPKEAFEQPQTSSTPPRDLDSKACISIGNQNFEVKADDLEPIMELGRGAYGVVEKMRHVPSGQIMAVKRIRATVNSQEQKRLLMDLDISMRTVDCPFTVTFYGALFREGDVWICMELMDTSLDKFYKQVIDKGQTIPEDILGKIAVSIVKALEHLHSKLSVIHRDVKPSNVLINALGQVKMCDFGISGYLVDSVAKTIDAGCKPYMAPERINPELNQKGYSVKSDIWSLGITMIELAILRFPYDSWGTPFQQLKQVVEEPSPQLPADKFSAEFVDFTSQCLKKNSKERPTYPELMQHPFFTLHESKGTDVASFVKLILGD
B2: constitutively active MKK6 variant MKK6_(1-334)^S207ET211E (enzyme, UniProt P52564 1-334, looked up)
chain: MSQSKGKKRNPGLKIPKEAFEQPQTSSTPPRDLDSKACISIGNQNFEVKADDLEPIMELGRGAYGVVEKMRHVPSGQIMAVKRIRATVNSQEQKRLLMDLDISMRTVDCPFTVTFYGALFREGDVWICMELMDTSLDKFYKQVIDKGQTIPEDILGKIAVSIVKALEHLHSKLSVIHRDVKPSNVLINALGQVKMCDFGISGYLVDEVAKEIDAGCKPYMAPERINPELNQKGYSVKSDIWSLGITMIELAILRFPYDSWGTPFQQLKQVVEEPSPQLPADKFSAEFVDFTSQCLKKNSKERPTYPELMQHPFFTLHESKGTDVASFVKLILGD

biological target: mitogen-activated protein kinase p38α (residues 2-349) (human, UniProt Q16539 2-349); assay: ITC
Sequence (Q16539 2-349): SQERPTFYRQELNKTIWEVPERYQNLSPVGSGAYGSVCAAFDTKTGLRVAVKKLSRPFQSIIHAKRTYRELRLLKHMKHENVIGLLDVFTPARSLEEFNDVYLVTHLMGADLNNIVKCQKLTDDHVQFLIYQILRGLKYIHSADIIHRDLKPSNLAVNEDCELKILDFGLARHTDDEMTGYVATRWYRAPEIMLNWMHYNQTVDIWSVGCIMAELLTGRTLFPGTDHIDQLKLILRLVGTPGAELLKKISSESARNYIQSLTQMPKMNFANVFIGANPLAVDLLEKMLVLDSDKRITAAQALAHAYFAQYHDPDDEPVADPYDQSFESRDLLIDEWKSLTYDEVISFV

Binder | Kd [µM]
B1 | 2 ± 0.1
B2 | 3.5 ± 1.4
SQSKGKKRNPGLKIPKEAF [MKK6KIM peptide] | 7 ± 2
